Where two headings read alike, the source gives them in different places.
What was measured:
human SIRPα variant 1 [1] = target: T1, human SIRPα variant 1 (human, UniProt P78324 31-504); assay: CELISA, CHO-K1 transfectants
T1 construct: full length ORF on transfected CHO-K1 or HEK293 cells; entry includes the signal peptide; also called hSIRPαV1; SIRPαV1
Method: (§1) The specificity of monoclonal anti-hSIRPα antibodies (e.g., including the hSIRPα antibodies known in the art, KWAR23 (U.S. Patent CA2939293 A1), 18D5 (Patent WO2017/178653 A2), and various commercially available hSIRPα antibodies) for binding to hSIRPαV1, hSIRPαV1(P74A), and hSIRPβ1 was evaluated by CELISA. Reactivity was confirmed using CHO-K1 cells (ATCC CCL-61) expressing a cDNA encoding the full length open reading frame of hSIRPαV1, hSIRPαV1(P74A), and hSIRPβ1 subcloned into the pCI-neo vector (Promega, Madison, Wis.). CHO-K1.hSIRPαV1, CHO-K1.hSIRPαV1(P74A), and CHO-K1.hSIRPβ1 cells were seeded in culture medium (DMEM-F12 (Gibco) supplemented with 5% New Born Calf Serum (BioWest) and Pen/Strep (Gibco)) in 96-well flat-bottom tissue culture plates and incubated at 37° C., 5% CO₂ and 95% humidity for 24 hours. Subsequently, culture medium was removed and cells were incubated for 1 hour at 37° C., 5% CO₂ and 95% humidity with purified hSIRPα antibodies (used at 10 μg/ml and dilutions thereof). Next, cells were washed with PBS-T and incubated for 1 hour at 37° C., 5% CO₂ and 95% humidity with either goat-anti-mouse IgG-HRP (Southern Biotech), goat-anti-human IgG-HRP (Jackson Immuno Research), or goat-anti-rabbit IgG-HRP (Southern Biotech). Subsequently, cells were washed three times with PBS-T and immunoreactivity against hSIRPαV1, hSIRPαV1(P74A), and hSIRPβ1 was visualized with TMB Stabilized Chromogen (Invitrogen). Reactions were stopped with 0.5 M H₂SO₄ and absorbances were read at 450 and 610 nm.

hSIRPαV1(P74A) [2] = target: T2, hSIRPαV1(P74A) (human, UniProt P78324 31-504); assay: CELISA, CHO-K1 transfectants
T2 construct: also called P74A variant of hSIRPαV1
T2 sequence (P78324 31-504 P74A limits assumed): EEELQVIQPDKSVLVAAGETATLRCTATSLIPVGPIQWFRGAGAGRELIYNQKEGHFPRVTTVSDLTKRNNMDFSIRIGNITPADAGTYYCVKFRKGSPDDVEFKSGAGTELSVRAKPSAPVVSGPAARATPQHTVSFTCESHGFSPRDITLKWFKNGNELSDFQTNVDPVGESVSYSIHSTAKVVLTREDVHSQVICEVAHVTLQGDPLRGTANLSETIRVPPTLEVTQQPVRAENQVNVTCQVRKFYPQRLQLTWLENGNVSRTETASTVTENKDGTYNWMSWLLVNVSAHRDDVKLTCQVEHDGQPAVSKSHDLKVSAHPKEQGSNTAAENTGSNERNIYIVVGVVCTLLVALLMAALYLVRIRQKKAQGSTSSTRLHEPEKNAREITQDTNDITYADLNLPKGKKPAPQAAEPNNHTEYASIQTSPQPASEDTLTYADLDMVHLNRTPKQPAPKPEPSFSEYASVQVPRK
Method: as §1

human SIRPβ1 [3] = target: T3, human SIRPβ1 (human, UniProt O00241 30-398); assay: CELISA, CHO-K1 transfectants
T3 construct: also called hSIRPβ1
T3 sequence (O00241 30-398 limits assumed): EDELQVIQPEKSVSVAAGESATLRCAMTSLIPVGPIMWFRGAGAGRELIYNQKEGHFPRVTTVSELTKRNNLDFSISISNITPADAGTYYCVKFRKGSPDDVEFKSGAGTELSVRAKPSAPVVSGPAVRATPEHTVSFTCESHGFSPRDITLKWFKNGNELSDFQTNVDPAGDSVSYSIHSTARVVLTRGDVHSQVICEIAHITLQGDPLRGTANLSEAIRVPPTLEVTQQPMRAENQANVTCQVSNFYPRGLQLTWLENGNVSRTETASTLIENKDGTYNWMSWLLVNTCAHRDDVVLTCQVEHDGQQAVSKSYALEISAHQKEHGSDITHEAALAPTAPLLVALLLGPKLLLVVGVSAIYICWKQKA
Method: as §1

human SIRPα variant 1 [4] = target: T1, human SIRPα variant 1; assay: flow cytometry, blockade of DyLight488-hCD47/Fc binding to U-937 cells
Method: hCD47 blockade for the KWAR23, clone 18D5, and hSIRPα.40A antibodies was assessed by flow cytometry. For this purpose, THP-1 (ATCC TIB-202) and U-937 (ATCC CRL-1593.2) monocyte cell lines were used as the source of hSIRPα in the assay. THP-1 and U-937 cells were seeded in 96-well round bottomed tissue culture plates and incubated for 45 minutes with FcR Blocking Reagent (Miltenyi Biotec) and indicated anti-hSIRPα antibodies (20 μg/mL and dilutions thereof) in PBS/1% BSA at 4° C. […] After this labeling procedure, cells were washed two times, resuspended in PBS/1% BSA containing 0.1 μg/mL DAPI (BioLegend), and analysed by flow cytometry on the FACSVerse (BD Biosciences). Data were processed and analysed with FlowJo V10 software (FlowJo, LLC) and plotted using GraphPad Prism 6 (GraphPad Software, Inc.). Binding of recombinant hCD47 fused to an Fc domain of human IgG1 was monitored in the presence of increasing amounts of the anti-hSIRPα antibodies. […] IC50 values represent the concentration at which half of the inhibition is observed.

human SIRPα variant 2 = target: T4, human SIRPα variant 2 (human, UniProt P78324 31-504); assay: CELISA, CHO-K1 transfectants; nd = not detected
T4 construct: full length ORF on transfected CHO-K1 cells; also called hSIRPαV2; SIRPαV2
T4 sequence (P78324 other isoform, or with tags, fused parts or gaps mutant limits assumed): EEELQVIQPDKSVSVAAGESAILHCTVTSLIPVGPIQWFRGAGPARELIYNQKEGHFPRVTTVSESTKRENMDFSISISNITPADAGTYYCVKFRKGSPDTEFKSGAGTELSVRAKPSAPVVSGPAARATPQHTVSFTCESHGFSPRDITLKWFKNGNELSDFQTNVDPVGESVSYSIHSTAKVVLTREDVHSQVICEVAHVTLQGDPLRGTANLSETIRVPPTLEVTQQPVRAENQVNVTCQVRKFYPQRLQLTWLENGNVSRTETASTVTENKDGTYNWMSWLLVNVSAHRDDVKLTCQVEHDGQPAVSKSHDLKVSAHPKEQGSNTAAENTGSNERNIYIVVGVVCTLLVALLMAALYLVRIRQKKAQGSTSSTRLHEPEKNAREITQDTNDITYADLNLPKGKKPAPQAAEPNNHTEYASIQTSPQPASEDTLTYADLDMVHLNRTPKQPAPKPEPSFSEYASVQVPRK
Method: as §1, with “Reactivity” for “The specificity of monoclonal anti-hSIRPα antibodies (e.g., including the hSIRPα antibodies known in the art, KWAR23 (U.S. Patent CA2939293 A1), 18D5 (Patent WO2017/178653 A2), and various commercially available hSIRPα antibodies) for binding to hSIRPαV1, hSIRPαV1(P74A), and hSIRPβ1 was evaluated by CELISA. Reactivity”, “hSIRPαV1(P74A), hSIRPαV2,” for “hSIRPαV1(P74A),”, “CHO-K1.hSIRPαV1(P74A), CHO-K1.hSIRPαV2,” for “CHO-K1.hSIRPαV1(P74A),”, “μg/mL” for “μg/ml”, “with” for “with either”, “goat-anti-mouse” for “goat-anti-mouse IgG-HRP (Southern Biotech), goat-anti-human IgG-HRP (Jackson Immuno Research), or goat-anti-rabbit”

human SIRPγ = target: T5, human SIRPγ (human, UniProt Q9P1W8 29-387); assay: flow cytometry, Jurkat E6.1 cells; nd = not detected
T5 construct: on transfected CHO-K1 cells; also called hSIRPγ
T5 sequence (Q9P1W8 29-387 limits assumed): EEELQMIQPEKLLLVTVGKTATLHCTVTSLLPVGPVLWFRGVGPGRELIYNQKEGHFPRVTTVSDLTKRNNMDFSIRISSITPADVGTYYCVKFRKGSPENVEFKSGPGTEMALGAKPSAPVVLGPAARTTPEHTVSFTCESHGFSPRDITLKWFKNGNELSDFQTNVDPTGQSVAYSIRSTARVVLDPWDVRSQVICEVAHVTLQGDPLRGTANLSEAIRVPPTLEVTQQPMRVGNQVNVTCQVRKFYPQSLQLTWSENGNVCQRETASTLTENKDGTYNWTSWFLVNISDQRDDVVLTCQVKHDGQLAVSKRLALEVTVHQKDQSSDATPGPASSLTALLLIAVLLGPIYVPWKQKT
Method: Binding to hSIRPγ was assessed by flow cytometry using the Jurkat E6.1 T cell leukemia cell line (ECACC 88042803). Jurkat cells were seeded in 96-well round bottomed tissue culture plates and incubated for 40 minutes with the anti-hSIRPα antibodies (20 μg/mL and dilutions thereof) in PBS/1% BSA at 4° C. […] After this labeling procedure, cells were washed two times, resuspended in PBS/1% BSA, containing 0.1 μg/mL DAPI (BioLegend), and analysed by flow cytometry on the FACSVerse (BD Biosciences). Data were processed and analysed with FlowJo V10 software (FlowJo, LLC).

human SIRPα variant 1 [5] = target: T1, human SIRPα variant 1; assay: CELISA, CHO-K1 transfectants; remark: listed apart in the source
Method: as §1, with “Reactivity” for “The specificity of monoclonal anti-hSIRPα antibodies (e.g., including the hSIRPα antibodies known in the art, KWAR23 (U.S. Patent CA2939293 A1), 18D5 (Patent WO2017/178653 A2), and various commercially available hSIRPα antibodies) for binding to hSIRPαV1, hSIRPαV1(P74A), and hSIRPβ1 was evaluated by CELISA. Reactivity”, “hSIRPαV1(P74A), hSIRPαV2,” for “hSIRPαV1(P74A),”, “CHO-K1.hSIRPαV1(P74A), CHO-K1.hSIRPαV2,” for “CHO-K1.hSIRPαV1(P74A),”, “μg/mL” for “μg/ml”, “with” for “with either”, “goat-anti-mouse” for “goat-anti-mouse IgG-HRP (Southern Biotech), goat-anti-human IgG-HRP (Jackson Immuno Research), or goat-anti-rabbit”

hSIRPαV1(P74A) [6] = target: T2, hSIRPαV1(P74A); assay: CELISA, CHO-K1 transfectants; remark: listed apart in the source
Method: as §1, with “Reactivity” for “The specificity of monoclonal anti-hSIRPα antibodies (e.g., including the hSIRPα antibodies known in the art, KWAR23 (U.S. Patent CA2939293 A1), 18D5 (Patent WO2017/178653 A2), and various commercially available hSIRPα antibodies) for binding to hSIRPαV1, hSIRPαV1(P74A), and hSIRPβ1 was evaluated by CELISA. Reactivity”, “hSIRPαV1(P74A), hSIRPαV2,” for “hSIRPαV1(P74A),”, “CHO-K1.hSIRPαV1(P74A), CHO-K1.hSIRPαV2,” for “CHO-K1.hSIRPαV1(P74A),”, “μg/mL” for “μg/ml”, “with” for “with either”, “goat-anti-mouse” for “goat-anti-mouse IgG-HRP (Southern Biotech), goat-anti-human IgG-HRP (Jackson Immuno Research), or goat-anti-rabbit”

human SIRPβ1 [7] = target: T3, human SIRPβ1; assay: CELISA, CHO-K1 transfectants; remark: listed apart in the source
Method: as §1, with “Reactivity” for “The specificity of monoclonal anti-hSIRPα antibodies (e.g., including the hSIRPα antibodies known in the art, KWAR23 (U.S. Patent CA2939293 A1), 18D5 (Patent WO2017/178653 A2), and various commercially available hSIRPα antibodies) for binding to hSIRPαV1, hSIRPαV1(P74A), and hSIRPβ1 was evaluated by CELISA. Reactivity”, “hSIRPαV1(P74A), hSIRPαV2,” for “hSIRPαV1(P74A),”, “CHO-K1.hSIRPαV1(P74A), CHO-K1.hSIRPαV2,” for “CHO-K1.hSIRPαV1(P74A),”, “μg/mL” for “μg/ml”, “with” for “with either”, “goat-anti-mouse” for “goat-anti-mouse IgG-HRP (Southern Biotech), goat-anti-human IgG-HRP (Jackson Immuno Research), or goat-anti-rabbit”

T1 sequence (P78324 31-504 limits assumed, change not shown): as the sequence (P78324 31-504 P74A limits assumed) above, with A44P counted along it

B1: 18D5 (antibody, V domains shown)
VH: QVQLQQPGAELVRPGSSVKLSCKASGYTFTSYWVHWVKQRPIQGLEWIGNIDPSDSDTHYNQKFKDKASLTVDKSSSTAYMQLSSLTFEDSAVYYCVRGGTGTMAWFAYWGQGTLVTVSA
VL: DVVMTQTPLSLPVSLGDQASISCRSSQSLVHSYGNTYLYWYLQKPGQSPKLLIYRVSNRFSGVPDRFSGSGSGTDFTLKISRVEAEDLGVYFCFQGTHVPYTFGSGTKLEIK
notes: from WO2017/178653; also called clone 18D5
**Q.** With B1 as the binder, how does the EC50 (human SIRPα variant 1 [1]) read?
**A.** 0.128 nM

**Q.** What about the EC50 (hSIRPαV1(P74A) [2]) of the same binder?
**A.** 0.073 nM

**Q.** What about the EC50 (human SIRPβ1 [3]) of the same binder?
**A.** 0.064 nM

**Q.** And the IC50 (human SIRPα variant 1 [4])?
**A.** 1.52 nM

**Q.** Does B1 bind (human SIRPα variant 2)?
**A.** no binding (tested: 10 µg/mL and dilutions thereof)

**Q.** Does B1 bind (human SIRPγ)?
**A.** no binding (tested: 20 µg/mL and dilutions thereof)

**Q.** What about the EC50 (human SIRPα variant 1 [5]) of the same binder?
**A.** 0.134 nM

**Q.** What about the EC50 (hSIRPαV1(P74A) [6]) of the same binder?
**A.** 0.055 nM

**Q.** What about the EC50 (human SIRPβ1 [7]) of the same binder?
**A.** 0.055 nM

From patent publication US20180312587A1 (ADURO BIOTECH HOLDINGS EUROPE B V, published 2018)
